One molecule from US20210275685A1 can be followed below.

For assay [1], the target named is human ADAM9 (Disintegrin and Metalloproteinase Domain-containing Protein 9), on cells (human) (UniProt Q13443). As to the kind of experiment: IHC staining of human tumour tissue: Breast CA (USA-00329); antibody at 0.4 µg/mL.
Assay [2] shares this target. As to the kind of experiment: IHC staining of human tumour tissue: Colon CA (ILS10341 B); antibody at 0.4 µg/mL.
For assay [3] the target is unchanged. The experiment in a line: IHC staining of human tumour tissue: Colon CA (ILS10369 B); antibody at 0.4 µg/mL.
Assay [4] shares this target. The experiment in a line: IHC staining of human tumour tissue: Colon CA (ILS11330 B); antibody at 0.4 µg/mL.
Assay [5] has the same target. As to the kind of experiment: IHC staining of human tumour tissue: Gastric CA (ILS-450 A); antibody at 0.4 µg/mL.
The target is the same in assay [6]. As to the kind of experiment: IHC staining of human tumour tissue: Colon CA (AGR-00237 B); antibody at 0.4 µg/mL.
For assay [7] the target is unchanged. The experiment in a line: IHC staining of human tumour tissue: Prostate CA (ILS20758-D3); antibody at 0.4 µg/mL.
Assay [8] shares this target. The experiment in a line: IHC staining of human tumour tissue: NSCLC (ILS10901), Adenocarcinoma; antibody at 0.4 µg/mL.
Assay [9] has the same target. The experiment in a line: IHC staining of human tumour tissue: NSCLC (ILS10108), Large Cell Carcinoma; antibody at 0.4 µg/mL.
For assay [10] the target is unchanged. The experiment in a line: IHC staining of human tumour tissue: NSCLC (ILS7223), Squamous Cell Carcinoma; antibody at 0.4 µg/mL.
Assay [11] shares this target. As to the kind of experiment: IHC staining of human tumour tissue: NSCLC (ILS7115 D), Squamous Cell Carcinoma; antibody at 0.4 µg/mL.

Sequence of human ADAM9 (Disintegrin and Metalloproteinase Domain-containing Protein 9), on cells (human) (Q13443 206-819): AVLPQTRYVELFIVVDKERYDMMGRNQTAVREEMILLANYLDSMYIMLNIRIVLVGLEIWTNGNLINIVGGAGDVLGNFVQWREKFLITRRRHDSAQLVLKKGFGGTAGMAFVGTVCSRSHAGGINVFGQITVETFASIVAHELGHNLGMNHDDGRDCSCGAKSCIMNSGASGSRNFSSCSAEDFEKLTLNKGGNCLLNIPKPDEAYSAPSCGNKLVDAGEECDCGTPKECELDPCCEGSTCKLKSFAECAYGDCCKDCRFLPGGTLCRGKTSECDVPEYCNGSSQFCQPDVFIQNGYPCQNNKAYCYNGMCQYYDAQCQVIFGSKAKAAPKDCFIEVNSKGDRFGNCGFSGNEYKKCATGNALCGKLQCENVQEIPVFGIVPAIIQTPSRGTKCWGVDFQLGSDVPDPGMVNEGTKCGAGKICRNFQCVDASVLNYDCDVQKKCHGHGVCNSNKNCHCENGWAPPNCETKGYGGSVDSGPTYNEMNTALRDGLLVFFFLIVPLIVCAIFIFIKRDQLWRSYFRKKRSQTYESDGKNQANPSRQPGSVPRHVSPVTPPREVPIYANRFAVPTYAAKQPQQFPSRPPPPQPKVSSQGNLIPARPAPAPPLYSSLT

B1: MAB-A (antibody, V domains shown)
VH: QVQLQQPGAELVKPGASVKLSCKASGYTFTSYWMHWVKQRPGQGLEWIGEIIPINGHTNYNEKFKSKATLTLDKSSSTAYMQLSSLASEDSAVYYCARGGYYYYGSRDYFDYWGQGTTLTVSS
VL: DIVLTQSPASLAVSLGQRATISCKASQSVDYDGDSYMNWYQQIPGQPPKLLIYAASDLESGIPARFSGSGSGTDFTLNIHPVEEEDAATYYCQQSHEDPFTFGGGTKLEIK
For the molecule B1, the Score in [1] turned out to be 3; in assay [2] it was 2; in [3] it was 1; in assay [4], 2; in assay [5], 2; in assay [6], 3. Besides, the Score in [7] came out at 3; in assay [8], 3; in assay [9], 3; in assay [10], 3; in assay [11] it was 1.
